This is an account of results in a protein production outcome set (Wang et al. 2014).

The series in a line: label from the status in PepcDB records.
Regarding “MASISNLIILLISFLIGWIILSIPVWLASKAVSRRSSFGNAMIVSLVSIVVYVVLSTFLHFIGAIIGIIIILLIIREIYNVGWGGAIVIGVLSLVIFVIIALILGALHLASLLI”, the protein production entry is listed as “failed”.

Consider “MQHRQLWYRGGLGLALALVVVGYRGSRTVIRAVPRAQLSVDQKMPSTSSVFSASKLTLQDEANNSAPQVSPEAQESSGPDKQSDLTSGSSTSSSGISSGNSSGSTILENAKNNQTSETATTKAAEMVNGTVKMTLDTNGTLHLSGGSFGASLGSATGSWIVKTLTANGYQPTQVSKIVIDGKITATTMTNYSYLFANLPNVTAIDGLANLNLTGVTDISWLFLNCSQLGALDLNSWDVSSVIRMEGTFQNCAKLVTLNVANWNTDSLQYLIDTFNGDSSLTSLPVGKWNTSKVATMMRTFTDCSSLTSLDIANWDTRVVTNMSAIFRGMSKVKSLPIDKWQTGRVVNMQLVFSGDTSLESINVANWDTSRATALDGTFAKLPNIKSLPLDNWNTSNVQTIRSTFYGDTNLTQLPIDNWNVGKVFDFNSTFSGCASLTTAPVANWNTQSATNLGYTFEGMTSLTSLPVDNWQTGTVTNMAGTFSGVSQLKSLPISKWNTKNVQNMAGTFSKMSSVTALPVDNWQTGNVTTMRGIFTKVSQVKNLPVGKWNTAKVVDMGQVFYGNPQLTSLPIENWNTSSATDFSQLFAEDSGLQTLSLGAWNTTKVTNFESVFQNTSLDKLDLTGWNTNSAQTYTNAFSSKLPPKRLLLGPSFNFFKSESWHLPNPSSEAPYIGKWRSLNNKKVYTSADLMTKYDGKTIVGEFEWATGNTITVKYVDAAGKYLAPDTKISGATGDAYHIKPIEIQGYVPDQPDGVQGNFTDKDETITLMYNPGGLMFVSAPQTINFGQNPITGKSENYGASYDTGLVIQDGRSIGSTWSLNATLSASGFTSKQSGRPLAAVLSYKDQQTGGGSILTPGVARLIVNNHQTVSNQGVNILGQKTALGALSLQVPTDRALTDTYQATVTWTLNQGVPNR”, for which the protein production entry is recorded as “failed”.

Regarding “TEDTFWKDETDFNLALTSCYTPLKNALNGGYYGTRGVMLRIARADEVDFRNDISDVYTVNRFTNSNTNSLTQGMFYQFYNALYRTNSIMQKLEEKKEQFSTDFQNSVKGECLFIRGFYLFQLAKEFKDAPLRLTASQSPSTFPLAKSSQADIWAQAKEDLKTAASLLPITNKIGKPTQGAAYAALGKIYVYEENWQEAINVLEPLTQNPYTYKLVEDFNWNFDDTHENNAESIFELLIEDVGGTDLWGDGENINSTQSNTRPKEYAAAEVGGWYEANPTQQIMDIFWKEKDKDGNFDYRARCSVAWDYEGCTYYQRPFREVFAQDKWKTYWILKYQNWKTQKDEPAPPKSFINERAIRYADVLLMLAEAYMNKGALDTSIGYINQIRRRANLNDYSGPITKEGVFEDLVHQRAIEFFVEGERFYDLRRWGLLEQTLKTCDDTRYKNYQTGKSDNINKFNYFPIPAKELDTNPLCTPSEGW”, the protein production result is reported as “not failed”.

On to “MDDVVEELLRIVVESLQYEEGNLNEAVDLAINFSTKNSIFFDQLLSLSTYCGSEGSYELAYVFAKTTANLSTGSEKAVAHHNAGTASYFLNLPMEAEEHYKLALQADPKHVNTHSNYGLLLSDMGRRDEAEQQYKLALKLDPKHVNTHYNYGILLYDMRRLDEAGEQYKLALESEPKHVKTHYNYGNLLSDMGSLDEAEEQYKLALESEPNDADIHYNYGLLLYNMESLDEAEEQYKLALESEPNDASTHSNYGILLSDMGRRDEAEEQYKLALESDPKHVNTHYNYGNLLSDMGRLDEAEEQYKLALESDPKHVKTHYNYGNLLSDMGRLDEAEEQYKLALESDPNDASIHSNYGILLSDMGRHEEAEEQYKLALETDPNDADIHYNYGNLLKRMGRLDEVEKQYILALEADPKHVNTHYNYGKLLEQMGRLDEAEKQYKIAIGIDPKMPNSHGAYGLLLFFQDLEEEAIKETEVASRLCRENGDKVKEHLSLAWLYEKFANKYYNLKDYKKSGEYAEISGDEYIEAGKQAGESFKDTSLTKGYTLKGRAKIRKLEIKTPFYKDIIKRIWNKESYEIEKFTKIINCIKDASICYEKAAKASPKDNQLCNACSISMSCLSEMLDYMFAVIKQKKTPELEDKLKNWNEKLSIAKGAYQEHSKGELFIESLYKLMGCIQNLDKYKKYGTREYGRAFEECRKELTEIANNIEGPIQKIIENVTKKMDVCRLKQLPYAGTETGYIPQPNKLSQFLKWILDPKRIGIGVFGIIITVIVNHYNEYLFSLIKRTVTMLLSKI”, for which the protein production entry was “failed”.

Regarding “MTIFRFADGNSMTTKTNLLPHIPSSDAIISRWRWLAIIVSLVMALLASAFILLLSNAVDREVAQLNTSSELREQADLVLISLIDMAVADRSYAKNHKAEDKARFEHAARNLDDILEYIELIVYAHPQWYEWFTSFKKEVEARKAFMNDHMRALDALPDQSSQPSSSSEIPKIQVARLAQLMTSFINGDDVVRQKQREGIALMRAALTLAAIVSVVSTFMSAYFVINRFHRDVRSLKMYQLLLHSENIALEARVKERTQELERARNHAEKERQRVEMLLQDVSHRIGNSLGTVSSLLGLQLNRSDNEEVRSVLGAARDRIQTISTAHRRLRLSDDMETTLLAEFLSSVVHDVELAMPLELRENITIHTNFKECRLSSRDATTLGIILGELLTNSLKHAFPDKRSGDIYISFGPQKNGQLMLIVEDNGVGMKNQTQEKKTGLGRVVVEQLCMQFGEKPLFETSALGGTKIVIPLPKLTPNASKEAYA”, the protein production result is “failed”.

As for “MTFTSNLPSSSEQSISPPASSFSSSTDTLKDIDIPHNGADLSTYSKFLALYCRSDKCDDFYSLEEKQNCKFGDQWLDFINTIHNLDFSESEVSGRVSERILPASLANKFTNNLGVAIKISEYTRDDERQIRGCVTTVENENSFNNWFVYHILDQSQLSLSEHPIVTKEVKYHELFADFFEKNLKNTIVNDQWNFGGRDYFIERSRYFTDRYLRIECILPAFPCKSSNEQKVYGSVPDKGEELALKRLIKATQDLVKIYPPGMKIWIVSDGHVFSDCIGVDDDVVSTYTTKLHELYKRVAIPGVDAIGFCGLNDLFFSGAASKVFDPKWVSDVEVAHYTGTQICPKSDLSRQILMKGCDTDAGRLRKQIAIEGHPRLHLYRGFSRFMMEDLSLLEHFQSYSRKKFKKIISMIAFNMIKRNDAYSNLVELIFPHHLRISIHAHTNSGPKFGIKVISNEQCSIVSSLEDLDEPKFEDFLHIPTPWHNCVVKVEDEKEKYFLTKSKVVKEALEKGMYDGVWKDTRFDIGEGGHFVIKKIS”, the protein production result is recorded as “failed”.

In the case of “MSCWKTINLVKDYGGMRIVLTAVSLMILFFIPEYLAMQLIHPQTVQRGDHALLFAGLLVAAIIAHKILHILPMISKKKLEKKIYWLKMRTWREIPKNMMLVSLLCPFLVITPVLFYAGAAMPSFAHYFCIISSIHFGYCLPDFLFAWKLIKAPKNCFVDQEADDFDILIQK”, the protein production entry is reported as “failed”.

Consider “MASRDAQEPSLHAADPSIVRPCEQHGGVLAGSVSSHPAAAECASHTPTLETGAPCAAGSAPSAPMTDQGARSPRAADSMPASSLERDERARRIACRLPSSAIRLPAFGEAVSRPNAGSSVDATATKASLPSAGDDGLGNSREEQGTTCSEPDLHGVPENDQVEVCVGGRGILRPRSYQRQAPQRCGLPGMAPETAARPDHTARNELEEALARQRARLAEPDASGDIHGRHAG”, for which the protein production entry is “failed”.

On to “MGRKRGNAIMEKTKIDIISGFLGAGKTTLIKKLLKDAFQGEQVVLIENEFGEIGIDGGFLKEAGIQIREMNSGCICCSLVGDFGASLKEVISKYHPDRILIEPSGVGKLSDVIKAVQGVEEETGLVLNSYTTVVDAKKCKMYMRNFGEFFNNQVEYAGAIIMSRTDIVDEAKAQASLELLREINSKAAIITTPIEKLEGKKLLEVMEHPVSLADELMEEEEVCPECGHVHEHGEHHHHDHDEECGCGHDHDHEEHEHHHHDHDEECGCGHDHAHEEHEHHHHDHDHECGCGHDHHDHHHHHADEVFTSWGRETIKKYTKENLEKMLEALSASDEYGIILRAKGMLPAEDGTWIYFDMVPEETEIREGAPEYTGRLCVIGSKLNEDKLAELFGL”, for which the protein production result is recorded as “failed”.

As to “MTPEQLMSLRATFRSPRRLLTESLAGLVVALALIPEAIAFSVIAGVDPRIGLFASFTMGVVTAIVGGRPAMISAATGAVALVIAPVMKEHGLDYLIATIILAGVFQIILAVLGVTKLMRFIPRSVMIGFVNALAILVFMSQMPELFDVPWMVYPIVVVGLVIVFGLPRITTAIPAPLVAIVAITLVTVLGNVDVPTVSDKGELPDSLPGFFLPNVPLNLETFQIIAPFALSMALVGLLESLMTAKLVDDITDTRSNKTRVSWGQGAANIVTGFLGGLGGCAVIGQTMINVKGSGARSRLSTFLAGVFLLILVVVLGDVVGMIPMAALVAVMIFVSLITFDWHSIRPSTLKRLPKSETAVMLITVAAVVATHNLAVGVGVGVVTAMVLFARRVAHFATVERTELELNGERVATYTVDGELFFASSNDLYTQFDYAKDSSDGIDRVIIDLHGSHIWDASTVAVLDSVTEKYRNHGREVEFIGLNEASVRMRERLAGKLNS”, the protein production entry was “failed”.

As for “MRSSDILIVDDEVGIRDLLSEILQDEGYSVALAENAEEARKLRHQARPAMVLLDIWMPDCDGITLLKEWAKNGQLNMPVVVMSGHASIDTAVEATKIGAIDFLEKPISLQKLLSAVENALKHGAAQIETGPVFDKLGNSAAIQEMNREVEAAAKRTSPVFLTGEAGSPFETVARYFHKNGTPWVSPARVEYLIDMPMELLQKAEGGVLYVGDIAQYSRNIQTGITFIIGKAERCRVRVIASCSYAAGSDGISCEEKLAGLFSESVVRIPPLSMQHEDIPFLIQGIACNVAESQKITPTAFSDDALAVLSRYDWPGNFEQLQNVVTTLLLEADGQEIGIGAASSALGRGVPADGTGHMACGFDFNLPLRELREEVERRYFEYHIAQEGQNMSKVAQKVGLERTHLYRKLKQLGIGVSRRAGEKTEE”, the protein production result was “not failed”.

With “MTVIIAGERSGAGKTTITLAMLAYLARQKLRVQSFKVGPDYIDPMFHSQITGRPCRNLDPFLTSEAYVQRCFHYHSQGTPYSLIEGVMGLFDGVPYQGLTDYSSTAHIARLLNLPIVFVMDCQRLSGSVAAIVQGYRHWQPGVNLVGVILNRVGGDRHLELLKIALEPLRIPILGVFFRQQDLTLPDRHLGLVPCGELPQIQQYFDQLAHVAAQQLDWPKLLPLLETPRNLPSPMSLFDVPQKSPQARLAIAQDQAFNFYYADNLDLLTHCGFELIPFSPLEDTELPPAIDGVYLGGGFPELFAEQLSQNQALKDQLKTLIHQGLPTYGECGGLMYLSQSLTNFEGQIFPMLEMLPTAVTMGGKLSLGYRQAQVVNSHSWLWQTESLRGHEFHRSQMTKLPNQALYRQRGLLAIDQNTTDGWCVGSVQASYLHLHWGSQISTVEKFRAACLAFQKKLSYLGKHPPFKSVPLRNTGGDAHGRE”, the protein production result is “failed”.

In the case of “MLTHYAALRASDRETFLIIELGGLGGRMGLVFVVMIVVLLYAPVHVPTYVGTLLGLLFVSIAFEIWMIVRRMRQDGLMARD”, the protein production result is “failed”.

Consider “MQFPSIEDLRARNTMKWTRYGQGVLPLWVAESDFSTCPAVLQAITDAVQREAFGYQPDGSLLSQATAEFYADRYGYQARPEWIFPIPDVVRGLYIAIDHFTPAQSKVIVPTPAYPPFFHLLSATQREGIFIDATGGINLHDVEKGFQAGARSILLCNPYNPLGMVFAPEWLNELCDLAHRYDARVLVDEIHAPLVFDGQHTVAAGVSDTAASVCITITAPSKAWNIAGLKCAQIIFSNPSDAEHWQQLSPVIKDGASTLGLIAAEAAYRYGTDFLNQEVAYLKNNHDFLLHEIPKRIPGAKITPMQATYLMWIDFRDTTIEGSPSEFFIEKAKVAMNDGAWFGEDGTGFCRLNFATSREVLEEAIDRMAKAVSHHT”, for which the protein production entry is “not failed”.

For the sequence “MPALSGLHLAPSVASFLCLAWTVALYFAVKPLYQRLPRIWLSPAIVVPALTIPLLLITGIPYAEYVADTRWMVWLLGPATIAFAVPIYEHREIVRRHWIALALGVIAGMLVAMLSARLLAEAFHFSSEVSSSLMARSVSTPFAVAVVAHTGGSAELVSLFTVMTGLAGMIVGDTVLGLLRLRSPVAQGASLGTAAHGFGTARARQRHAEEGVVASLTMVLAGVLMVIAGPTLTGWVTALVG”, the protein production result was “failed”.
